In US20110262929A1 (FORERUNNER PHARMA RESEARCH, published 2011):
Residue numbers refer to the chain shown, from its start.

Tests used:
[1] = biological target: T1, C-terminal V5 tagged HS6ST2_N-long (HS6ST2_N-long_ctV5), expressed in CHO DG44 cells (human, UniProt Q96MM7 1-605); test: flow cytometry on HS6ST2_N-long_ctV5_CHO cells
T1 construct: On cells in flow cytometry; also called Q96MM7-1
T1 sequence: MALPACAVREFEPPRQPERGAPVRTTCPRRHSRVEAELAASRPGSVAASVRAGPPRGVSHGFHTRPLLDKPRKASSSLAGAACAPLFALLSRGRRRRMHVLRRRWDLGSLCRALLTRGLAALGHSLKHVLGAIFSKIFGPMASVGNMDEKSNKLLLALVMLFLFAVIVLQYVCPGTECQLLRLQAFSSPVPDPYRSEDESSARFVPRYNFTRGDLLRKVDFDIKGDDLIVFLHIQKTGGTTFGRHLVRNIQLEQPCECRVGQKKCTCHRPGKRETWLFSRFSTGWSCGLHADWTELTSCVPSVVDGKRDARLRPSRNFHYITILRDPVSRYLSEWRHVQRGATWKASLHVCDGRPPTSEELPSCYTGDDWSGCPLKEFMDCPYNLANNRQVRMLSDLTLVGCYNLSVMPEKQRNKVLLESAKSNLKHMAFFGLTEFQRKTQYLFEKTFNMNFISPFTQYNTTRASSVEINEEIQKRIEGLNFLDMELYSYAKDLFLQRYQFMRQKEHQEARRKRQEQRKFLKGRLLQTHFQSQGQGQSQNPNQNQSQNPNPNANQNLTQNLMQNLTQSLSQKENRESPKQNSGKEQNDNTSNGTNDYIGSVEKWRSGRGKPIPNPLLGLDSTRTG
Method: (§1) Each anti-HS6ST2 antibody or mouse IgG1 (mIgG1, BD Biosciences Pharmingen) as a negative control was added to a final concentration of 2 μg/mL into 96-well U-bottom plates (Becton Dickinson) containing 5×10⁴ cells suspended in PBS (FACS buffer) supplemented with 0.5% bovine serum albumin and 0.1% NaN₃. After reaction on ice for 1 hour, the cells were washed with FACS buffer. Then, an FITC-labeled anti-mouse antibody (Goat F(ab′)₂ Fragment Anti-mouse IgG (H+L)-FITC, Beckman Coulter) was added as a secondary antibody, and the mixture was reacted on ice for 1 hour. The cells were washed with FACS buffer, and then suspended in FACS buffer containing 10 μg/mL propidium iodide (PI) (Sigma) and assayed by a flow cytometer (FACS Calibur, Becton Dickinson). The assay data were analyzed by CELLQuest software (Becton Dickinson), and the geo-mean of FITC fluorescent intensity was calculated for the PI-negative population of viable cells.
Binding activity of the anti-HS6ST2 antibodies prepared in Example 2 to HS6ST2_N-long was evaluated by flow cytometry. The cells used were HS6ST2_N-long_ctV5_CHO cells and HS6ST2_N-short_{—} ctV5_CHO cells as a positive control, and evaluated in the same manner as in Example 3. The primary antibodies were used at a concentration of 10 μg/mL.

[2] = biological target: T2, C-terminal V5 tagged mouse HS6ST2 (mHS6ST2_ctV5), expressed in CHO DG44 cells (mouse, UniProt Q80UW0 148-612); test: flow cytometry, antibody diluted 5-fold from 10 µg/mL in 6 steps
T2 construct: also called mHS6ST2_ctV5_CHO; mouse HS6ST2 transcript variant 2
T2 sequence: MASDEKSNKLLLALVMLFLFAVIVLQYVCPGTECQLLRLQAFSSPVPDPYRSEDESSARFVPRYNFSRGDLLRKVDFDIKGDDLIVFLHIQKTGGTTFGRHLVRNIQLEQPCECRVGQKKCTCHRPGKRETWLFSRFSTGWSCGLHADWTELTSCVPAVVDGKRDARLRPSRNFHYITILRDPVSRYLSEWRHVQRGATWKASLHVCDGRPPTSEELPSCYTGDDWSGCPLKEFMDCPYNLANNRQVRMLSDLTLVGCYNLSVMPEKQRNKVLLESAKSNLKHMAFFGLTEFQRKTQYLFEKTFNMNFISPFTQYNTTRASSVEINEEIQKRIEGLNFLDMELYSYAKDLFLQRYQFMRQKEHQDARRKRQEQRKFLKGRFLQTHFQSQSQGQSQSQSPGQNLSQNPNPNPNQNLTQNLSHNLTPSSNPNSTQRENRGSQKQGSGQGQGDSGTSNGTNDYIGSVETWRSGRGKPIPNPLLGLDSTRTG
Method: (§2) Binding of the anti-HS6ST2 antibodies prepared in Example 2 to mHS6ST2 was evaluated by flow cytometry. The cells used were mHS6ST2_ctV5_CHO, HS6ST2_N-short_ctV5_CHO as a positive control, and the CHO DG44 cell line as a negative control.
as §1, with “Each anti-HS6ST2 antibody or mouse IgG1 (mIgG1, BD Biosciences Pharmingen) as a negative control was added to a final concentration of 2 μg/mL into 96-well U-bottom plates (Becton Dickinson) containing 5×10⁴ cells suspended in PBS (FACS buffer) supplemented with 0.5% bovine serum albumin and 0.1% NaN₃.” left out
It was also shown that A6 and C8 equally bind to HS6ST2 and mHS6ST2.

[3] = biological target: T3, C-terminal V5 tagged HS6ST2_N-short (HS6ST2_N-short_ctV5), expressed in CHO DG44 cells (human, UniProt Q96MM7 147-605); test: flow cytometry on HS6ST2_N-short_ctV5_CHO cells, antibody 2 µg/mL
T3 construct: also called Q96MM7-2
T3 sequence: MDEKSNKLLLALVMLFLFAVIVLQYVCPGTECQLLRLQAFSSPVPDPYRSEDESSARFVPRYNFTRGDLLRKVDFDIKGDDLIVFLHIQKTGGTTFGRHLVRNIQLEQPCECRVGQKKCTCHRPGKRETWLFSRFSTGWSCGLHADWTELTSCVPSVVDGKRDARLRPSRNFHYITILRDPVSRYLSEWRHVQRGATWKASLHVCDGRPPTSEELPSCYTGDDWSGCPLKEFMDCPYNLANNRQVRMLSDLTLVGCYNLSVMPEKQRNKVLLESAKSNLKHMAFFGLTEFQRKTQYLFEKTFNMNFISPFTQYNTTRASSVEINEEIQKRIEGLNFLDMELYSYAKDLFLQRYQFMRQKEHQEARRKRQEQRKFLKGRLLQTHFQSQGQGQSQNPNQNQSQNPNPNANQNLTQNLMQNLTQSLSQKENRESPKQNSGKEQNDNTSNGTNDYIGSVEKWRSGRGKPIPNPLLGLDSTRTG
Method: as §2, §1

Measured: binding result

B1: anti-HS6ST2 antibody A6 (antibody, mouse IgG1, V domains shown)
VH: EVQLQQSGAELVRSGASVKLSCTASGFNIKDYYMHWVKQRPEQGLEWIGWIDPENDDTEYAPKFQGRATMTADTSSNTAYLQLSSLTSEDTAVYYCNAGYYGSGFAYWGQGTLVTVSA
VL: DIVMTQSPSSLTVTAGEKVTMRCKSSQSLLNSGNQKNYLTWYQQKPGQPPRLLIYWASIRESGVPDRFTGSGSGTDFTLTISSVQAEDLAVYYCQNDYSYPLTFGTGTKLELK
notes: also called clone A6
binds: all assays above

B2: anti-HS6ST2 antibody C8 (antibody, mouse IgG1, V domains shown)
VH: B1 VH with E54D, R67K, Y100N, Y101G, G102N, S103Y, G104W
VL: DVVMTQTPLSLPVSLGDQASISCRSSQSLVHSNGNTYLHWNLQKPGQSPKLLIYKVSNRFSGVPDRFSGSGSGTDFTLKISRVEAEDLGVYFCSQTTLVPYTFGGGTKLEIK
notes: also called clone C8; C8-biotin
binds: all assays above
